Ends that are not written are not given here. * marks the point of attachment. Benzoyl(4-SO2NH2) = NS(=O)(=O)c1ccc(C(=O)*)cc1; M65 = not defined here; M67 = not defined here; M75 = not defined here; M76 = not defined here; M88 = not defined here
B1: (SAB)AAAAE (peptide)
peptide: {Benzoyl(4-SO2NH2)}-AAAAE-NH2
SMILES: C[C@H](NC(=O)c1ccc(S(N)(=O)=O)cc1)C(=O)N[C@@H](C)C(=O)N[C@@H](C)C(=O)N[C@@H](C)C(=O)N[C@@H](CCC(=O)O)C(N)=O
B2: (SAB)HAAAE (peptide)
peptide: {Benzoyl(4-SO2NH2)}-HAAAE-NH2
SMILES: C[C@H](NC(=O)[C@H](C)NC(=O)[C@H](Cc1c[nH]cn1)NC(=O)c1ccc(S(N)(=O)=O)cc1)C(=O)N[C@@H](C)C(=O)N[C@@H](CCC(=O)O)C(N)=O
B3: (SAB)LAAAE (peptide)
peptide: {Benzoyl(4-SO2NH2)}-LAAAE-NH2
SMILES: CC(C)C[C@H](NC(=O)c1ccc(S(N)(=O)=O)cc1)C(=O)N[C@@H](C)C(=O)N[C@@H](C)C(=O)N[C@@H](C)C(=O)N[C@@H](CCC(=O)O)C(N)=O
B4: (SAB)AFAAE (peptide)
peptide: {Benzoyl(4-SO2NH2)}-AFAAE-NH2
SMILES: C[C@H](NC(=O)c1ccc(S(N)(=O)=O)cc1)C(=O)N[C@@H](Cc1ccccc1)C(=O)N[C@@H](C)C(=O)N[C@@H](C)C(=O)N[C@@H](CCC(=O)O)C(N)=O
B5: (SAB)EAAAE (peptide)
peptide: {Benzoyl(4-SO2NH2)}-EAAAE-NH2
SMILES: C[C@H](NC(=O)[C@H](C)NC(=O)[C@H](CCC(=O)O)NC(=O)c1ccc(S(N)(=O)=O)cc1)C(=O)N[C@@H](C)C(=O)N[C@@H](CCC(=O)O)C(N)=O
B6: (SAB)FAAAE (peptide)
peptide: {Benzoyl(4-SO2NH2)}-FAAAE-NH2
SMILES: C[C@H](NC(=O)[C@H](C)NC(=O)[C@H](Cc1ccccc1)NC(=O)c1ccc(S(N)(=O)=O)cc1)C(=O)N[C@@H](C)C(=O)N[C@@H](CCC(=O)O)C(N)=O
B7: (SAB)SAAAE (peptide)
peptide: {Benzoyl(4-SO2NH2)}-SAAAE-NH2
SMILES: C[C@H](NC(=O)[C@H](C)NC(=O)[C@H](CO)NC(=O)c1ccc(S(N)(=O)=O)cc1)C(=O)N[C@@H](C)C(=O)N[C@@H](CCC(=O)O)C(N)=O

target: T1, human carbonic anhydrase 2 (wild-type hCAII) (Homo sapiens, UniProt P00918 4-259); experiment: cell-based or functional assay

In order of rising “NTM-AAEIR IC50 (µM), colorimetric IC50 assay (pNPA hydrolysis by wild-type hCAII)” value:
1. M75-AAEIR (reading uncertain; also: printed as M75-AAEIR) [M75-AAEIR]  0.067 µM
2. M67-AAEIR (reading uncertain; also: printed as M67-AAEIR) [M67-AAEIR]  0.073 µM
3. M76-AAEIR (reading uncertain; also: printed as M76-AAEIR) [M76-AAEIR]  0.077 µM
4. M88-AAEIR (reading uncertain; also: printed as M88-AAEIR) [M88-AAEIR]  0.095 µM
5. M65-AAEIR (reading uncertain; also: printed as M65-AAEIR) [M65-AAEIR]  0.515 µM

target: T1, human carbonic anhydrase 2 (wild-type …); experiment: cell-based or functional assay; remark: another data set of the same source

In order of rising “IC50 (µM), hCAII functional assay (p-nitrophenyl acetate hydrolysis)” value:
1. B3  0.0284 µM
2. B6  0.045 µM
3. B1  0.0484 µM
4. B5  0.0993 µM
5. B2  0.148 µM
6. B7  0.153 µM
7. B4  0.183 µM
